Test results published in the supplement of paper PMC7877785.
± gives the uncertainty stated by the source.

Experiment: self-splicing fitness, log relative to wild type (ln ratio); higher = more splicing; Tetrahymena group I intron in knt gene, E. coli kanamycin selection, DiMSum; sequences stand for … in CUCUCU…GGAGGGAAAAGUUAUCAGGCAUGCACCUGGUAGCUAGUCUUUAAACCAAUAGAUUGCAUCGGUUUAAAAGGCAAGACCGUCAAAUUGCGGGAAAGGGGUCAACAGCCGUUCAGUACCAAGUCUCAGGGGAAACUUUGAGAUGGCCUUGCAAAGGGUAUGGUAAUAAGCUGACGGACAUGGUCCUAACCACGCAGCCAAGUCCUAAGUCAACAGAUCUUCUGUUGAUAUGGAUGCAGUUCACAGACUAAAUGUCGGUCGGGGAAGAUGUAUUCUUCUCAUAAGAUAUAGUCGGACCUCUCCUUAAUGGGAGCUAGCGGAUGAAGUGAUGCAACACUGGAGCCGCUGGGAACUAAUUUGUAUGCGAAAGUAUAUUGAUUAGUUUUGGAGUACUCGUGGUCG
Method in brief: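 The eight P1ex-region nucleotides of an intron in the knt kanamycin-resistance gene on pET-22b(+) were all randomised and the library put into E. coli BL21(DE3). Six replicate transformations were grown overnight at 37°C or 30°C on LB agar with or without 25 μg/mL kanamycin, together with 100 μg/mL carbenicillin, 50 μM IPTG and 0.2% rhamnose. Colonies were pooled and amplicon-sequenced on an Illumina HiSeq 2500. Fitness from DiMSum is the error-weighted combination of wild-type-normalised replicate fold changes, kanamycin over none.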

CCCAAGCAAUAUUACGUUAG
self-splicing fitness (ln) (30 °C): -4.82 ± 0.24
self-splicing fitness (ln) (37 °C): -3.02 ± 0.22

CCCAAGCAAUAUUACGUUUG
self-splicing fitness (ln) (30 °C): -4.1 ± 0.21
self-splicing fitness (ln) (37 °C): -2.82 ± 0.21

CCCCAGCAAUAUUACGACGA
self-splicing fitness (ln) (30 °C): -4.12 ± 0.39
self-splicing fitness (ln) (37 °C): -2.68 ± 0.27

CCCCAGCAAUAUUACGACGG
self-splicing fitness (ln) (30 °C): -3.1 ± 0.17
self-splicing fitness (ln) (37 °C): -3.42 ± 0.3

CCCCAGCAAUAUUACGCAGA
self-splicing fitness (ln) (30 °C): -4.17 ± 0.28
self-splicing fitness (ln) (37 °C): -3.54 ± 0.21

CCCCAGCAAUAUUACGCAGU
self-splicing fitness (ln) (30 °C): -3.25 ± 0.12
self-splicing fitness (ln) (37 °C): -2.71 ± 0.15

CCCCAGCAAUAUUACGCAUG
self-splicing fitness (ln) (30 °C): -3.67 ± 0.17
self-splicing fitness (ln) (37 °C): -2.75 ± 0.16

CCCCAGCAAUAUUACGCGCG
self-splicing fitness (ln) (30 °C): -2.69 ± 0.14
self-splicing fitness (ln) (37 °C): -2.97 ± 0.22

CCCCAGCAAUAUUACGCGGC
self-splicing fitness (ln) (30 °C): -2.98 ± 0.16
self-splicing fitness (ln) (37 °C): -3.16 ± 0.4

CCCCAGCAAUAUUACGCGUC
self-splicing fitness (ln) (30 °C): -3.21 ± 0.17
self-splicing fitness (ln) (37 °C): -2.92 ± 0.18

CCCCAGCAAUAUUACGCUAU
self-splicing fitness (ln) (30 °C): -3.43 ± 0.15
self-splicing fitness (ln) (37 °C): -1.9 ± 0.13

CCCCAGCAAUAUUACGGCAC
self-splicing fitness (ln) (30 °C): -4.46 ± 0.42
self-splicing fitness (ln) (37 °C): -2.55 ± 0.29

CCCCAGCAAUAUUACGGCUU
self-splicing fitness (ln) (30 °C): -3.23 ± 0.21
self-splicing fitness (ln) (37 °C): -2.25 ± 0.23

CCCCAGCAAUAUUACGUAGC
self-splicing fitness (ln) (30 °C): -3.93 ± 0.16
self-splicing fitness (ln) (37 °C): -2.93 ± 0.2

CCCCAGCAAUAUUACGUAUU
self-splicing fitness (ln) (30 °C): -3.55 ± 0.16
self-splicing fitness (ln) (37 °C): -3.28 ± 0.28

CCCCAGCAAUAUUACGUGAA
self-splicing fitness (ln) (30 °C): -4.42 ± 0.13
self-splicing fitness (ln) (37 °C): -2.44 ± 0.099

CCCCAGCAAUAUUACGUGGA
self-splicing fitness (ln) (30 °C): -3.09 ± 0.086
self-splicing fitness (ln) (37 °C): -1.23 ± 0.068

CCCCAGCAAUAUUACGUUUC
self-splicing fitness (ln) (30 °C): -4.32 ± 0.28
self-splicing fitness (ln) (37 °C): -2.36 ± 0.23

CCCGAGCAAUAUUACGACAG
self-splicing fitness (ln) (37 °C): -2.46 ± 0.41

CCCGAGCAAUAUUACGACCA
self-splicing fitness (ln) (37 °C): -1.35 ± 0.31

CCCGAGCAAUAUUACGACCG
self-splicing fitness (ln) (30 °C): -4 ± 0.29
self-splicing fitness (ln) (37 °C): -2.24 ± 0.29

CCCGAGCAAUAUUACGACGG
self-splicing fitness (ln) (30 °C): -3.44 ± 0.17
self-splicing fitness (ln) (37 °C): -3.49 ± 0.27

CCCGAGCAAUAUUACGAGAG
self-splicing fitness (ln) (30 °C): -3.25 ± 0.2
self-splicing fitness (ln) (37 °C): -2.15 ± 0.36

CCCGAGCAAUAUUACGAGCG
self-splicing fitness (ln) (30 °C): -3.77 ± 0.29
self-splicing fitness (ln) (37 °C): -2.88 ± 0.27

CCCGAGCAAUAUUACGAUGC
self-splicing fitness (ln) (30 °C): -4.29 ± 0.46
self-splicing fitness (ln) (37 °C): -2.52 ± 0.38

CCCGAGCAAUAUUACGAUUA
self-splicing fitness (ln) (30 °C): -3.04 ± 0.24
self-splicing fitness (ln) (37 °C): -2.4 ± 0.21

CCCGAGCAAUAUUACGCAGC
self-splicing fitness (ln) (37 °C): -2.05 ± 0.42

CCCGAGCAAUAUUACGCGAC
self-splicing fitness (ln) (30 °C): -1.96 ± 0.29
self-splicing fitness (ln) (37 °C): -1.68 ± 0.29

CCCGAGCAAUAUUACGCUAA
self-splicing fitness (ln) (30 °C): -2.14 ± 0.27
self-splicing fitness (ln) (37 °C): -1.99 ± 0.2

CCCGAGCAAUAUUACGGACU
self-splicing fitness (ln) (30 °C): -2.57 ± 0.11
self-splicing fitness (ln) (37 °C): -2.19 ± 0.2

CCCGAGCAAUAUUACGGCCG
self-splicing fitness (ln) (30 °C): -4.1 ± 0.23
self-splicing fitness (ln) (37 °C): -3.14 ± 0.32

CCCGAGCAAUAUUACGGCGG
self-splicing fitness (ln) (30 °C): -3.49 ± 0.23
self-splicing fitness (ln) (37 °C): -1.66 ± 0.2

CCCGAGCAAUAUUACGGCUU
self-splicing fitness (ln) (30 °C): -3.29 ± 0.17
self-splicing fitness (ln) (37 °C): -2.71 ± 0.2

CCCGAGCAAUAUUACGGGAA
self-splicing fitness (ln) (30 °C): -4.33 ± 0.29
self-splicing fitness (ln) (37 °C): -2.39 ± 0.14

CCCGAGCAAUAUUACGGUAG
self-splicing fitness (ln) (30 °C): -3.16 ± 0.18
self-splicing fitness (ln) (37 °C): -2.35 ± 0.17

CCCGAGCAAUAUUACGGUCU
self-splicing fitness (ln) (30 °C): -2.83 ± 0.21
self-splicing fitness (ln) (37 °C): -1.85 ± 0.23

CCCGAGCAAUAUUACGUGCA
self-splicing fitness (ln) (30 °C): -3.5 ± 0.2
self-splicing fitness (ln) (37 °C): -1.52 ± 0.15

CCCGAGCAAUAUUACGUGCC
self-splicing fitness (ln) (30 °C): -4.31 ± 0.3
self-splicing fitness (ln) (37 °C): -3.26 ± 0.37

CCCGAGCAAUAUUACGUGGU
self-splicing fitness (ln) (30 °C): -4.96 ± 0.34
self-splicing fitness (ln) (37 °C): -2.59 ± 0.19

CCCGAGCAAUAUUACGUGUA
self-splicing fitness (ln) (30 °C): -3.33 ± 0.2
self-splicing fitness (ln) (37 °C): -2.97 ± 0.32

CCCGAGCAAUAUUACGUUAA
self-splicing fitness (ln) (30 °C): -2.82 ± 0.2
self-splicing fitness (ln) (37 °C): -2.25 ± 0.16

CCCGAGCAAUAUUACGUUGU
self-splicing fitness (ln) (30 °C): -3.46 ± 0.14
self-splicing fitness (ln) (37 °C): -2.73 ± 0.19

CCCUAGCAAUAUUACGACUU
self-splicing fitness (ln) (30 °C): -3.27 ± 0.23
self-splicing fitness (ln) (37 °C): -2.7 ± 0.29

CCCUAGCAAUAUUACGAGAU
self-splicing fitness (ln) (30 °C): -3.88 ± 0.22
self-splicing fitness (ln) (37 °C): -2.91 ± 0.24

CCCUAGCAAUAUUACGAUGG
self-splicing fitness (ln) (30 °C): -3.91 ± 0.2
self-splicing fitness (ln) (37 °C): -1.79 ± 0.15

CCCUAGCAAUAUUACGCAAU
self-splicing fitness (ln) (30 °C): -3.56 ± 0.23
self-splicing fitness (ln) (37 °C): -2.02 ± 0.27

CCCUAGCAAUAUUACGCCUG
self-splicing fitness (ln) (30 °C): -3.64 ± 0.23
self-splicing fitness (ln) (37 °C): -3.11 ± 0.23

CCCUAGCAAUAUUACGCGGU
self-splicing fitness (ln) (30 °C): -3.75 ± 0.16
self-splicing fitness (ln) (37 °C): -2.53 ± 0.18

CCCUAGCAAUAUUACGCGUU
self-splicing fitness (ln) (30 °C): -3.65 ± 0.19
self-splicing fitness (ln) (37 °C): -2.72 ± 0.17

CCCUAGCAAUAUUACGCUAC
self-splicing fitness (ln) (30 °C): -2.96 ± 0.34
self-splicing fitness (ln) (37 °C): -1.84 ± 0.43

CCCUAGCAAUAUUACGCUGC
self-splicing fitness (ln) (30 °C): -3.47 ± 0.32

CCCUAGCAAUAUUACGGAAG
self-splicing fitness (ln) (30 °C): -4.09 ± 0.22
self-splicing fitness (ln) (37 °C): -2.02 ± 0.19

CCCUAGCAAUAUUACGGACU
self-splicing fitness (ln) (30 °C): -3.48 ± 0.3
self-splicing fitness (ln) (37 °C): -2 ± 0.32

CCCUAGCAAUAUUACGGAUA
self-splicing fitness (ln) (37 °C): -2.73 ± 0.26

CCCUAGCAAUAUUACGGCCC
self-splicing fitness (ln) (30 °C): -3.9 ± 0.27
self-splicing fitness (ln) (37 °C): -0.5 ± 0.38

CCCUAGCAAUAUUACGGCUC
self-splicing fitness (ln) (30 °C): -4.27 ± 0.23
self-splicing fitness (ln) (37 °C): -1.75 ± 0.14

CCCUAGCAAUAUUACGGGCG
self-splicing fitness (ln) (30 °C): -1.68 ± 0.089
self-splicing fitness (ln) (37 °C): -0.597 ± 0.1

CCCUAGCAAUAUUACGGGGA
self-splicing fitness (ln) (30 °C): -3.28 ± 0.23
self-splicing fitness (ln) (37 °C): -2.41 ± 0.2

CCCUAGCAAUAUUACGGGUC
self-splicing fitness (ln) (30 °C): -3.26 ± 0.14
self-splicing fitness (ln) (37 °C): -2.65 ± 0.2

CCCUAGCAAUAUUACGGUGA
self-splicing fitness (ln) (30 °C): -2.53 ± 0.11
self-splicing fitness (ln) (37 °C): -1.23 ± 0.094

CCCUAGCAAUAUUACGUAGG
self-splicing fitness (ln) (30 °C): -2.61 ± 0.15
self-splicing fitness (ln) (37 °C): -2.15 ± 0.29

CCCUAGCAAUAUUACGUAUG
self-splicing fitness (ln) (30 °C): -3.75 ± 0.2
self-splicing fitness (ln) (37 °C): -3.63 ± 0.3

CCCUAGCAAUAUUACGUAUU
self-splicing fitness (ln) (30 °C): -3.8 ± 0.17
self-splicing fitness (ln) (37 °C): -2.92 ± 0.18

CCGAAGCAAUAUUACGAACC
self-splicing fitness (ln) (30 °C): -3.42 ± 0.48

CCGAAGCAAUAUUACGAAGG
self-splicing fitness (ln) (30 °C): -4.66 ± 0.46
self-splicing fitness (ln) (37 °C): -2.15 ± 0.27

CCGAAGCAAUAUUACGAAUG
self-splicing fitness (ln) (30 °C): -0.621 ± 0.059
self-splicing fitness (ln) (37 °C): -0.208 ± 0.076

CCGAAGCAAUAUUACGACCG
self-splicing fitness (ln) (30 °C): -0.936 ± 0.13
self-splicing fitness (ln) (37 °C): -0.0137 ± 0.17

CCGAAGCAAUAUUACGAGCA
self-splicing fitness (ln) (30 °C): -2.35 ± 0.22
self-splicing fitness (ln) (37 °C): -2.9 ± 0.36

CCGAAGCAAUAUUACGAGCG
self-splicing fitness (ln) (30 °C): -0.283 ± 0.087
self-splicing fitness (ln) (37 °C): 0.807 ± 0.1

CCGAAGCAAUAUUACGAUCC
self-splicing fitness (ln) (30 °C): -3.91 ± 0.46
self-splicing fitness (ln) (37 °C): -2.46 ± 0.45

CCGAAGCAAUAUUACGAUGA
self-splicing fitness (ln) (30 °C): -3.16 ± 0.26
self-splicing fitness (ln) (37 °C): -2.24 ± 0.19

CCGAAGCAAUAUUACGAUUU
self-splicing fitness (ln) (30 °C): -1.44 ± 0.16
self-splicing fitness (ln) (37 °C): -2.58 ± 0.24

CCGAAGCAAUAUUACGCAUC
self-splicing fitness (ln) (30 °C): -4.21 ± 0.34

CCGAAGCAAUAUUACGCCCA
self-splicing fitness (ln) (30 °C): -2.41 ± 0.42

CCGAAGCAAUAUUACGCCCG
self-splicing fitness (ln) (30 °C): -0.442 ± 0.13
self-splicing fitness (ln) (37 °C): 0.42 ± 0.26

CCGAAGCAAUAUUACGCGUG
self-splicing fitness (ln) (30 °C): -3.05 ± 0.14
self-splicing fitness (ln) (37 °C): -2.56 ± 0.13

CCGAAGCAAUAUUACGCGUU
self-splicing fitness (ln) (30 °C): -4.01 ± 0.16
self-splicing fitness (ln) (37 °C): -2.4 ± 0.12
